# Experimental data from patent publication US6630572.
# Columns and labels:
# [1] = target: high-affinity cell surface thrombin receptor on mouse embryo (ME) cells (mouse) (UniProt P30558); assay: competition with [^125I]-alpha-thrombin on ME cells; reference p508-530
# [2] = target: high-affinity cell surface thrombin receptor on mouse embryo (ME) cells (mouse) (UniProt P30558); assay: competition with [^125I]-alpha-thrombin (1 nM) on quiescent ME cells
# [3] = target: high-affinity cell surface thrombin receptor on mouse embryo (ME) cells (mouse) (UniProt P30558); assay: cell-based or functional assay
# [4] = target: high-affinity cell surface thrombin receptor on mouse embryo (ME) cells (mouse) (UniProt P30558); assay: competition with [^125I]-alpha-thrombin (1 nM) for specific binding to quiescent ME cells, 23 C
# [5] = target: high-affinity cell surface thrombin receptor on mouse embryo (ME) cells (mouse) (UniProt P30558); assay: competition with [^125I]-alpha-thrombin on ME cells
# [6] = target: high-affinity cell surface thrombin receptor on mouse embryo (ME) cells (mouse) (UniProt P30558); assay: competition with [^125I]-alpha-thrombin (1 nM) on quiescent ME cells; at 2.7 uM peptide
binder,measurement,setting,value
RGDA [synthetic peptide p517-520 (residues 517 to 520 of human prothrombin)],fold higher concentration for 30% inhibition than p508-530,[1],50 fold
same,concentration at Maximal % Inhibition,[2],2.7 µM
same,"inhibition of alpha-thrombin stimulated DNA synthesis in ME cells by 625 nM p517-520, at 0.8 nM alpha-thrombin",[3],75%
same,"inhibition of alpha-thrombin stimulated DNA synthesis in ME cells by 625 nM p517-520, at 13.0 nM alpha-thrombin",[3],35%
same,molar excess of p517-520 over alpha-thrombin required for inhibition of stimulation,[3],500 to 1000 fold
same,Concentration Required for 30% Inhibition,[4],300 nM
same,percent of [^125I]-alpha-thrombin binding competed,[5],30 to 50%
same,Maximal % Inhibition,[6],50%
